Measured values published in EP4524159A1, “ANTIBODY AND USE THEREOF” (Sichuan Huiyu Pharmaceutical Co., Ltd., priority 2022, dated 2023).
Changes are numbered by the printed parent chain. Square brackets hold non-standard residues; d marks the D form. Peptide text beside a SMILES is read from it. * marks the point of attachment. Dolaproine = CO[C@@H]([C@@H]1CCCN1)[C@@H](C)C(=O)O; Dil = CC[C@H](C)[C@H](NC)[C@@H](CC(=O)O)OC; X1 = C[C@@H](N*)[C@@H](O)c1ccccc1; NMeV = CN[C@H](C(=O)O)C(C)C

T1: HuCDCP1-B (human) (UniProt Q9H5V8)
T1 sequence (looked up): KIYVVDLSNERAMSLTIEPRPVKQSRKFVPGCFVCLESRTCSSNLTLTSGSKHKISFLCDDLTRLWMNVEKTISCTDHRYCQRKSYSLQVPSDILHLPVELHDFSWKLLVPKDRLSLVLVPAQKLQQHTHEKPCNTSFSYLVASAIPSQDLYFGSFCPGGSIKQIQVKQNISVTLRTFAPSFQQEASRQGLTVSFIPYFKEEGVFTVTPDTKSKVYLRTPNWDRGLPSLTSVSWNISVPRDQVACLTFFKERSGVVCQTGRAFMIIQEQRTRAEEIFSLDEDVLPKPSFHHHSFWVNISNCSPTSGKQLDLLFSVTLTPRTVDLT

B1: SB1 (antibody, V domains shown)
VH: QVQLQQSGPDLVRPGESVKISCKGSGYTFTDHAIHWVRQSHAKSLEWIGVISFSYDNTKYNQNFKGKATMTVDKSSNTAYMELARLTSEDSAIYYCARDCYGSNRGYFDYWGQGTTLTVSS
VL: DIRMTQSPSSMYASLGERVTITCKASQDINRFLSWFLQRPGKAPKTLIYRANNLVEGVPSRFSGSGSGQDYSLIISNLEYEDMGIYYCLQYDEFPRTFGGGTKLEIK
B2: SB4 (antibody, V domains shown)
VH: QVQLQQSGAELVRPGTSVKISCKASGYTFTNYWLGWVKQRPGHGLEWIGDNYPGDNYRNFNEKFKGKATLTTDASSSTAYLQLSSLISEDSAVYFCTRSGGSRYYTMDYWGQGTSVTVSS
VL: DIVMTQAAFSNPVTLGTSASISCRSSRSLLHNNGITYLYWYLQKPGQSPQLLIYQMSNLASGVPDRFHSSGSGTDFTLSISRVEAEDVGVYYCAQNLDLPYTFGGGTKLEIK
B3: SB5 (antibody, V domains shown)
VH: QVQLRESGPGLVAPSQSLSITCTVSGFSLTDFGVNWVRQPPGKGLEWLGIIWANGRIEYNSALKSRLSISKDNSRSQVFLKLNSLQTDDTARYYCARDHDYDVEAMDYWGQGTSVTVSA
VL: QIVLTQSPAIKSASPGEKVTMTCSASSSVIYMHWYQQKSGSSPKRWIYDTSKLASGVPVRFSGSGSGTSYSLTISTMEAEDAATYYCQQWSSYPPTFGGGTKVEIK
B4: SB6 (antibody, V domains shown)
VH: QGQMQQSGAELVKPGASVKLSCKTSGFTFNSSYITWLKQKPGQSLEWIAWIFAGTGGTYYNEKFTDKAQLTVDTTSSTAYMQFSSLTTEDSAIYYCARHGLGYDYWGQGTTLTVSS
VL: SIVMTQTPKFLLVSAGDRVTITCKASQSVNTDVAWYQQKSGQSPKLLIYSASNRYTGVPDRFTGSGYGTDFTFTISTVQAEDLAVYFCQQDHSSPPWTFGGGTKLEIK
B5: SB7 (antibody, V domains shown)
VH: QVQLQQSGPELVSPGESVKISCKGSGYTFTDYAVHWVKQSHSKSLEWIGVKSVYYGITKYSQNFKDKATMTVDKSSSTAYMELARLTSEDSAIYYCARDSYGSSRGYFDYWGQGTTLTVSS
VL: DIKMTQSPSSIYVSPGERVTITCKASQDINSFLSWFQQKPGKSPKTLIYRANRLVDGVPSRFSGSGSGQDYSLTISSLEYEDMGIYYCLQYDEFPRTFGGGTKLEIK
B6: 3C11-MMAE (conjugate)
VH: EVQLQQSGTVLARPGASVKMSCKASGYNFISYWLHWIKQRPGQGLEWIGGIYPGNTDTTYNQKFKGKAKVTAVTSATTAYMELSSLTNEDSAVYYCIRYDYDRGMDYWGQGTTVTVSS
VL: DIQMTQSPSSFSVSLGDRVTITCRASEDIYYRLAWYQQKPGNAPRLLISGATALETGVPSRFSGSGSGKDYTLSITSLQTEDVATYYCQHYWNIPWTFGGGTKLEIK
B7: 3B 12H5-MMAE (conjugate)
VH: EVQLQQSGTVLARPGASVKMSCKASGYSFTIYWVHWVKQRPGQGLEWIGAVYPGNDDTSYNQNFKGKAKLTAVTSATTAYMELSSLTIDDSAVYYCTRHTYDEVFDYWGQGTTVTVSS
VL: B6 VL with Q3V, F11L, R24K, A51G, A53N, T56A, V58I, T85I, I94T
B8: 10D2-MMAE (conjugate)
VH: EVQLQQSGPELKKPGETVKISCKASGYTFTDYSMHWVKQAPGKGLKWMGWINTETGQPTYADDFKGRFAFSLETSASSAYLQINNLKNEDTATYFCTRTFYYDYVGDYWGQGTTVTVSS
VL: DIVMTQSHKFMSTSVGDRVSITCKASQDVSTAVAWYRQKPGQSPKLLIYWASTRHTGVPDRLTGSGSGTDFALTINSVQAEDLALYYCQQHSSTPYTFGGGTKLEIK
B9: 8E5-MMAE (conjugate)
VH: EVQLKESGPELKKPGETVKISCKASGYTLTDFSMHWLKQAPGKGLKWMGWINTETGAPTYADDFKGRFALSLDTSANTAYLQINNLKNEDTATYFCSRGRDYDPHFDYWGQGTTVTVSS
VL: EIVLTQSPATLSVTPGDRVSLSCRASQSISDFLHWYQQRSHESPRLLIKYASQSISGIPSRFGGSGSGSDFTLNINTVEPEDVGMYYCQSAHSFPYTFGGGTKLEIK
B10: G10F6-MMAE (conjugate)
VH: EVKLVESGPGILQPSQTLSLTCSFSGFSLSTSGMGVSWVRQPSGKGLEWLAHIYWDDDKRYNPSLKGRLTISKDTPRNQVFLEITSVDTTDTATYYCARVPGNWDEDAMDYWGQGTTVTVSS
VL: DIQMTQSPLSLPVSLGDQASISCRSSQNIVHTNGNTYLEWYLQKVGQSPKLLIYKVSNRFSGVPDRFSGSGSGTDFTLKISRVEAEDLGVYYCFQGSHVPYTFGGGTKLEIK
B11: 6A7-MMAE (conjugate)
VH: EVQLKESGAELVRPGASVKVSCKASGYSFTSYWMNWVKQRPGQGLEWIGMIHPSDSETKLNQKFRDRASLTVDKSSSTAYMQLSSPTSEDSAVYYCTINYESFYYAMDYWGQGTTVTVSS
VL: DIVMTQSPASLAVSLGQRATISCRASKSVSTSGYSYMHWYQQKPGQPPKLLLYLASNLESGVPARFSGSGSGADFTLNIHPVEEEDAATYYCLHSRELPYTFGGGTKLEIK

Columns and labels:
HCC1806 = test: In vitro killing by humanized antibody-vc-MMAE conjugate (CellTiter-Glo, 120 h); assay type: cell-based
Protocol: (§1) The colorectal cancer cells HCT116 and breast cancer cells HCC1806 were counted separately, adjusted to 3000 cells/well and plated in 96-well plates overnight. Conjugates were added at a final concentration of 200 nM to 0.000512 nM (a 5-fold dilution across 9 concentration points), totaling 200 µL, cultured at 37°C in a CO2 incubator for 120 h, half of the medium (100 µL) was discarded, and 100 µL of CellTiter-Glo Luminescent Cell Viability assay reagent (Promega, cat # G7570) was added to detect signal values on a BMG microplate reader. The inhibition activity of antibody on tumor cell growth was calculated by graphpad fitting based on the signal value and antibody concentration, and the results are shown in FIGS. 6a and 6b and Tables 19 and 20. Table 19 DAR value of anti-CDCP1 humanized antibody-vc-MMAE conjugate and its IC50 value for HCC1806

HCT116 [1] = test: as above; assay type: cell-based
Protocol: as §1

MDA-MB-231 = test: In vitro killing by chimeric antibody-vc-MMAE conjugate (CellTiter-Glo, 120 h); assay type: cell-based; conditions: MDA-MB-231 (120 h)
Protocol: (§2) The specific steps were: Colorectal cancer cells HCT116, breast cancer cells MDA-MB-231, prostate cancer cells PC3, MCF7 cells were respectively counted, adjusted to 3000 cells/well, and plated onto 96-well plates overnight; Conjugates were added at a final concentration of 8 nM to 0.000512 nM (a 5-fold dilution across 7 concentration points), totaling 200 µL, cultured at 37 °C in a CO2 incubator for 120 h, half of the medium (100 µL) was discarded, and 100 µL of CellTiter-Glo Luminescent Cell Viability assay reagent (Promega, cat # G7570) was added to detect signal values on a BMG microplate reader. The inhibition activity of antibody on tumor cell growth was calculated by graphpad fitting based on the signal value and antibody concentration, and the results are shown in FIG. 5 and Table 15. Table 15 IC50 value of anti-CDCP1 chimeric antibody -vcMMAE conjugate on tumor cells

HCT116 [2] = test: as above; assay type: cell-based
Protocol: as §2

MCF7 [3] = test: as above; assay type: cell-based; conditions: MCF7 (120 h), cells that do not express CDCP1
Protocol: as §2

PC3 = test: as above; assay type: cell-based; conditions: PC3 (120 h)
Protocol: as §2, with “[…],” for “cultured at 37 °C in a CO2 incubator for 120 h,”

HuCDCP1-C (human) = HuCDCP1-C (human) (UniProt Q9H5V8); test: ELISA, HuCDCP1-C coated 2 ug/ml
HuCDCP1-B (human) = molecular target: T1, HuCDCP1-B (human); test: ELISA, HuCDCP1-B coated 2 ug/ml
[4] = Drug : antibody ratio (DAR) of antibody-vc-MMAE conjugates by hydrophobic HPLC; conditions: for DAR: chimeric antibody-vc-MMAE conjugates; for DAR2 (%): share of DAR2 species; for DAR4 (%): share of DAR4 species; for DAR6 (%): share of DAR6 species; for DAR8 (%): share of DAR8 species
Protocol: The specific operation was to reduce each antibody and the control antibody CD27H10 (27H10 antibody in WO2018112334A1) with a 2-fold molar amount of […] (TECP) at 4 °C for 1 hour. A 7-fold molar amount of vcMMAE was then added for ligation at 4-25 °C for 1 h, and then the reaction mixture was dialyzed against 1 × PBS pH 8.0 and filtered for sterilization. Drug : antibody ratio (DAR) was detected by hydrophobic kurtosis with HLPC, and the molecular coupling results are shown in Table 14. Table 14 DAR values of antibody-drug conjugates
The humanized antibodies 1CP-125, 1CP-117 and 1CP-152 were subjected to linking to form ADC, and the linking process was the same as in example 18. Table 18 DAR values of antibody-drug conjugates

MCF7 [5] = test: In vitro killing by chimeric antibody-vc-MMAE conjugate (CellTiter-Glo, 120 h); assay type: cell-based; conditions: MCF7 (120 h), cells that do not express CDCP1; remark: listed apart in the source
Protocol: The inhibition activity of antibody on tumor cell growth was calculated by graphpad fitting based on the signal value and antibody concentration, and the results are shown in FIG. 5 and Table 15. Table 15 IC50 value of anti-CDCP1 chimeric antibody -vcMMAE conjugate on tumor cells

| Molecule | ELISA (HuCDCP1-C (human)) [nM] | DAR [4] | DAR2 (%) [4] [%] | DAR4 (%) [4] [%] | DAR6 (%) [4] [%] | DAR8 (%) [4] [%] | other results |
| --- | --- | --- | --- | --- | --- | --- | --- |
| CC[C@H](C)[C@@H]([C@@H](CC(=O)N1CCC[C@H]1[C@H](OC)[C@@H](C)C(=O)N[C@H](C)[C@@H](O)c1ccccc1)OC)N(C)C(=O)[C@@H](NC(=O)[C@@H](NC)C(C)C)C(C)C [MMAE] (H-[NMeV]V[Dil][Dolaproine]-X1) | – | – | – | – | – | – | IC50 (HCC1806): 53 pM; IC50 (HCT116 [1]): 283 pM; IC50 (MDA-MB-231): 168 pM; IC50 (HCT116 [2]): 108 pM; IC50 (MCF7 [3]): 77.7 pM; IC50 (PC3): 1.01 pM |
| B1 | 0.092 | – | – | – | – | – | – |
| B2 | 0.071 | – | – | – | – | – | – |
| B3 | 0.413 | – | – | – | – | – | ELISA (HuCDCP1-B (human)): 0.208 nM |
| B4 | 0.027 | – | – | – | – | – | – |
| B5 | 0.034 | – | – | – | – | – | – |
| B6 | – | 3.48 | 33.89 | 28.50 | 8.28 | 9.09 | – |
| B7 | – | 3.2 | 29.966 | 37.81 | 7.324 | 1.741 | – |
| B8 | – | 3.5 | 34.10 | 39.38 | 10.24 | 8.00 | – |
| B9 | – | 3.65 | 32.01 | 37.12 | 11.15 | – | IC50 (MCF7 [5]): ~200000 pM |
| B10 | – | 3.6 | 32.59 | 35.66 | 12.02 | 10.04 | IC50 (MCF7 [5]): > 200000 pM |
| B11 | – | 3.6 | 24.99 | 38.25 | 12.28 | 5.30 | – |
